Source: patent US20250043012A1

Biological target: human EGFR (protein used in SPR, ELISA and BLI) (human) (UniProt P00533)
Experiment: SPR

koff: 5e-05 s⁻¹
kon: 280000 M⁻¹ s⁻¹
B1: ER-2b (antibody, part only; not given: Constant region, common trastuzumab light chain, part only)
heavy chain, part: EVQLVESGGGLVQPGGSLRLSCAASGFNIYYAAMHWVRQAPGKGLEWVAFISPYYSYTSYADSVKGRFTISADTSKNTAYLQMNSLRAEDTAVYYCARYFHSSWYESSSPRAYYPGMDYWGQGTLVTVSS
